Measured values as given in patent US20240392013A1, “IL1RAP ANTIBODIES AND USES THEREOF” (STELEXIS THERAPEUTICS, LLC, priority 2021, published 2024).

Assays:
[1] = tested on: cyIL1RAP; assay: Kinetics of IL1RAP mAbs by Octet, cynomolgus IL1RAP; assay type: binding
Protocol: (§1) Antibodies were diluted in kinetics buffer (0.1% BSA, 0.02% Tween-20 and 0.05% NaN3 in PBS) and loaded onto 16 channel anti-mouse IgG Fc capture sensors (AMC, Cat #2001073; Sartorius, Göttingen, Germany). Human, huIL1RAP-His (Sino Biological, lot: MB08MA1301), and monkey, cyIL1RAP-His (Lake Pharma, NY, USA; lot:16205819371) proteins were titrated starting from the highest concentration of 100 nM and followed by 50 nM and 25 nM. Purified antibodies were loaded at 5 μg/ml in kinetics buffer. The experimental parameters selected to determine the kinetic constants were Baseline for 60 s, Loading of antibody to sensor for 180 s, Association of analyte to antibody for 120 s, Dissociation for 1200 s and Regeneration in 10 mM Glycine pH 1.7 for 4×30 s.
(§2) Regeneration cycle tracking was selected for 12 cycles. Binding to human and cynomolgus IL1RAP was measured and KD (M) kinetics were calculated. Also, the disassociation rate (Kdis) (1/s) and association rate (Kon) (1/Ms) kinetics were calculated (data not shown).

[2] = tested on: IL33-induced NFκB activity; assay: HEK-BlueIL33 NFκB Reporter Assay; assay type: cell-based, human; conditions: nM range, read-out: IC50, inhibition of IL33-induced NFκB activity
Text: HEK-Blue IL33 (Invivogen, Cat #hkb-hil33) cell line was used to monitor NFκB activity upon stimulation with IL33 cytokine. The secreted embryonic alkaline phosphatase reporter gene (SEAP) is inducible expressed under the control of IFN-β minimal promoter fused to NFκB/AP-1. HEK-BlueIL33 cells were also generated upon stable transfection with human IL1RL1 (ST2) gene. Specificity to IL33 cytokine was achieved by blockage of TNF-α and IL1 response. Cells are maintained in the presence of hygromycin (200 μg/ml), zeocin (100 μg/ml) and blasticidin (10 μg/ml).
(§3) For the functional assay, cells were plated at a density of 5×10^4 cells/well in 96-well plates. Cells were treated with each antibody at the highest concentration of 200 μg/ml followed by seven serial 1:3 dilutions and incubated for 45 minutes at 37° C./5% CO^2 in humified incubator. Cells were then stimulated with IL33 (12 μM) and incubated overnight at 37° C./5% CO2 in humified incubator. Every treatment was conducted in triplicates. Following, supernatants from each well were mixed with Quanti-Blue substrate (Invivogen, Cat #rep-qb1) according to manufacturer's recommendations and secreted SEAP was measured using spectrophotometer at 650 nm.

[3] = tested on: IL36-induced downstream signaling (phospho-ERK, AKT, p38, NFκB) in HPAC, CAL33, 5637 cells; assay: IL36 signaling in solid tumor cancer cells, Western blot; assay type: cell-based; conditions: IL36γ, antibody 20 μg/ml
Protocol: (§4) AML patient samples or cancer cells (AML, chronic myelogenous leukemia (CML), pancreatic, head and neck squamous cell carcinoma (HNSCC), bladder, non-small-cell lung carcinoma (NSCLC), colorectal and triple-negative breast cancer (TNBC)) were seeded in 6-well plates (5×10^5 cells/well) and incubated overnight at 37° C./5% CO2 in humified incubator. In experiments conducted in cancer cell lines, cells were washed 2× with PBS and serum-starved for 3 hours. Following, cells were treated with IL1RAP antibodies at concentration of 20 μg/ml and incubated for 1 h at 37° C./5% CO2 in humidified incubator. After 1 h, cells were treated with IL1β (Invivogen, cat: rcyec-hil1b), IL33 (Adipogen, cat: AG-40B-0160-C010) or IL36 cytokines (R@D, cat: 6836IL) at 100 ng/ml and incubated for 15 more minutes. Cells were harvested on ice after 1× wash with cold PBS and were centrifuged for 5 minutes at 5000 rpm at 4° C. Cells were then lysed with NP-40 buffer for 5 minutes on ice and centrifuged for 15 minutes at 15000 rpm at 4° C. Supernatants were collected and protein concentrations were determined by BCA (Thermofisher, Cat #PI23225). […] After 3× washes, ECL was applied (Thermofisher, Cat #32106) and proteins were detected after exposure to autoradioraphic films (Worldwide medical products, Cat #41101001) and protein intensity was quantitated using ImageJ software.

[4] = target: T1, hIL1RAP (Homo sapiens, UniProt Q9NPH3); assay: Kinetics of IL1RAP mAbs by Octet, human IL1RAP; assay type: binding; set-up: extracellular domain His-tagged, Cat #10121-H08H; His; purchased Sino Biological lot MB08MA1301 (catalogue number not given)
T1 sequence (Q9NPH3 21-367 limits assumed): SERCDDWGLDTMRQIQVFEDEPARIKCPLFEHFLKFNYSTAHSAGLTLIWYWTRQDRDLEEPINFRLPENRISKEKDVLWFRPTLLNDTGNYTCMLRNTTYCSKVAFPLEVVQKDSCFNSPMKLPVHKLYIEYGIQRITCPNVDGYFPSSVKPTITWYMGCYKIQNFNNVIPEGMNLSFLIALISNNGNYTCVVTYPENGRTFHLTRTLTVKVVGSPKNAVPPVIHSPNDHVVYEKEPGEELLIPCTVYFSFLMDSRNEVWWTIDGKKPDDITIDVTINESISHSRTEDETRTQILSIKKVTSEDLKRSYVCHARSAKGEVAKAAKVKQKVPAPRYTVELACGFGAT
Protocol: as §1, §2

[5] = tested on: IL1-induced NFκB activity; assay: HEK-BlueIL1β NFκB Reporter Assay; assay type: cell-based; conditions: nM range, read-out: IC50, inhibition of IL1-induced NFκB activity
Protocol: The HEK-Blue IL1β (Invivogen, Cat #hkb-il1b) cell line was used to monitor NFκB activity upon stimulation with IL1β cytokine. In this cell line the secreted embryonic alkaline phosphatase reporter gene (SEAP) is inducibly expressed under the control of IFN-β minimal promoter fused to NFκB/AP-1. Specificity to IL1β cytokine was achieved by blockage of TNF-α response. The cells were maintained in the presence of hygromycin (200 μg/ml) and zeocin (100 μg/ml).
as §3, with “CO2” for “CO^2”, “IL1β” for “IL33”, “(Invivogen, CA USA;” for “(Invivogen,”

[6] = tested on: IL1-induced downstream signaling (phospho-ERK, AKT, p38, NFκB) in A6L, CAL33, 5637, A549, Colo205, HCC70 cells; assay: IL1 signaling in solid tumor cancer cells, Western blot; assay type: cell-based; conditions: antibody 20 μg/ml
Protocol: as §4

IC50 [2]: 1.37 nM
hIL1RAP kdis(1/s) [4]: 0.000273 s⁻¹
hIL1RAP kon(1/Ms) [4]: 421500 M⁻¹ s⁻¹
IC50 [5]: 0.193 nM
B1: 74804_45C18A: anti-IL1RAP mAb; VH SEQ ID NO:11, VL SEQ ID NO:27, κ light chain (antibody, V domains shown)
VH: EVQLVESGGGLVKPGGSLRLACAATGFTFSNVWMSWVRQGSGKGLEWVGRIKSKADGGTIDYAAPVKGRFTISRDDSKNTLYLQMNSLKTEDTAMYYCTTGELLGFDYWGQGTLVTVSS
VL: DIVMTQSPLSLPVTPGEPASISCRSGQSLLHSNGFNCLAWYLQKPGQSPQLLIYLGSNRASGVPDRFSGSGSGTDFTLKISRVEAEDVGVYYCMQTLQTPITFGQGTRLEIK
modifications: 74804_45C18A VH; 74804_45C18A VL
cyIL1RAP kdis(1/s) [1]: 0.000291 s⁻¹
cyIL1RAP kon(1/Ms) [1]: 337500 M⁻¹ s⁻¹
Inhibition of IL36 signaling (phosphorylation of ERK, AKT, p38 and NFκB) [3]: Inhibition of IL36 signaling in solid tumor cancer cells
Inhibition of IL1 signaling (phosphorylation of ERK, AKT, p38 and NFκB) [6]: inhibited IL1 signaling in solid tumor cancer cells
